Data as given in PMC7881136.

Target: Kapβ2 (untagged, GST removed) (human) (UniProt Q92973)
Experiment: ITC; 10 μM Kapβ2 in the cell, 100 μM or 200 μM MBP-FUS protein in the syringe; 20 mM Tris–HCl, 150 mM NaCl, 10% glycerol, 2 mM BME; 20 °C; single class of binding sites, global analysis of duplicates or triplicates

Kapβ2 (untagged, GST removed) (human), sequence (Q92973 9-898): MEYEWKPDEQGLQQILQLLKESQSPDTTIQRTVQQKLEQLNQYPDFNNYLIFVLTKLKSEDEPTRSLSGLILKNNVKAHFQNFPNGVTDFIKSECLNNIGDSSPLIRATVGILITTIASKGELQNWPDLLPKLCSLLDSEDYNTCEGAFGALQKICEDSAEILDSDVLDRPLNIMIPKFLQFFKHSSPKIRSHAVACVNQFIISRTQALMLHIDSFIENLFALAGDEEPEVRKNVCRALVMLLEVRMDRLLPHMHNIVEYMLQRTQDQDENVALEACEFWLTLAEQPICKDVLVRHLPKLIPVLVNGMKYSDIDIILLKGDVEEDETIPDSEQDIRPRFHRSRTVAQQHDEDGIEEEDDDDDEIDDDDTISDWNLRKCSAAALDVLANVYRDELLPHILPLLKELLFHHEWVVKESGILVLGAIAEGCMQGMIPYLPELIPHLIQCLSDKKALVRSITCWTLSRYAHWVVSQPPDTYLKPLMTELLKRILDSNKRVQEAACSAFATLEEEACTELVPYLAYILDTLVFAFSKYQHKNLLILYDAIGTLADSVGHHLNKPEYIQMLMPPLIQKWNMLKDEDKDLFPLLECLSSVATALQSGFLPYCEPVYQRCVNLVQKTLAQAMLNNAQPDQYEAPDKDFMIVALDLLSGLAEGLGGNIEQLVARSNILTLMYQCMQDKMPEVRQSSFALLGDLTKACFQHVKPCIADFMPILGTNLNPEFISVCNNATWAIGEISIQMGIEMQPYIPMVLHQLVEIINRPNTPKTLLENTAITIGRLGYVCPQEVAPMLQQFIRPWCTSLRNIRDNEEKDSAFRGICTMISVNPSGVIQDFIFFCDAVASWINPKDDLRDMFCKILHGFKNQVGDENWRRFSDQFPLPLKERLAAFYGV

Kd: 6 µM
Substance: MBP-FUS(453–500) (RGG3) (from UniProt P35637 453-500) (domain or fragment)
